Test results as given in patent US20040258659A1 (UNIVERSITE PIERRE ET MARIE CURIE PARIS VI, published 2004).

B1: LSPVSSQSSA-RANTES (10-68) (P1) (ligand, human)
chain: LSPVSSQSSACCFAYIARPLPRAHIKEYFYTSGKCSNPAVVFVTRKNRQVCANPEKKWVREYINSLEMS
notes: range 33-91; Made by total chemical synthesis; The range 10-68 counts on mature RANTES, not on the precursor; also called mutant P1; variant P1
B2: FSPLSSQSSA-RANTES (10-68) (P2) (ligand, human)
chain: FSPLSSQSSACCFAYIARPLPRAHIKEYFYTSGKCSNPAVVFVTRKNRQVCANPEKKWVREYINSLEMS
notes: range 33-91; Made by total chemical synthesis; The range 10-68 counts on mature RANTES, not on the precursor; also called mutant P2; RANTES P2

Legend:
[1] = target: T1, CCR5 (UniProt P51681 1-352, limits assumed); assay: cell-based or functional assay
[2] = target: T1, CCR5; assay: competitive radioligand binding on whole CHO-CCR5 cells at 4 C, 12 pM [125I]MIP-1α tracer
Procedure: Assays were carried out essentially as (11). CHO—CCR5 cells were seeded into 24 well plates (8×10⁴ cells/well). […] After incubation, cells were washed, lysed, and the lysaes counted using a Beckman Gamma 4000 scintillation counter. Determinations were performed in duplicate and IC₅₀ values derived from monophasic curves (competition binding; one-site) fitted using Prism software (GraphPad).

T1 sequence (P51681 whole entry): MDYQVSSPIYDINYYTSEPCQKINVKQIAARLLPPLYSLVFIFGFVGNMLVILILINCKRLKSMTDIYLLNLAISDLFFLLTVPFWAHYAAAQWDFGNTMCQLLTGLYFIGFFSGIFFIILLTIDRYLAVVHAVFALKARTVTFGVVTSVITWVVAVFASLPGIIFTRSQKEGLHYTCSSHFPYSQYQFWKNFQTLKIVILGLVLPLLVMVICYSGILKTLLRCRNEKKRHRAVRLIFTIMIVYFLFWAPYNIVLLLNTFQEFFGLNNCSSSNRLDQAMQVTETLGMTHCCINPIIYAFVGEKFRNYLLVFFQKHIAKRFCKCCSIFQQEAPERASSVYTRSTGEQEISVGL

Binder	IC50, R5-tropic envelope-mediated cell fusion assay [1] [nM]	IC50 [2] [nM]
B1	7	0.3
B2	0.6	0.2
